In publication PMC5079111 (Cell, 2016):

Target: His-NPM1 (human, UniProt P06748 1-294)
Assay: pull-down

Chain of His-NPM1 (P06748 whole entry): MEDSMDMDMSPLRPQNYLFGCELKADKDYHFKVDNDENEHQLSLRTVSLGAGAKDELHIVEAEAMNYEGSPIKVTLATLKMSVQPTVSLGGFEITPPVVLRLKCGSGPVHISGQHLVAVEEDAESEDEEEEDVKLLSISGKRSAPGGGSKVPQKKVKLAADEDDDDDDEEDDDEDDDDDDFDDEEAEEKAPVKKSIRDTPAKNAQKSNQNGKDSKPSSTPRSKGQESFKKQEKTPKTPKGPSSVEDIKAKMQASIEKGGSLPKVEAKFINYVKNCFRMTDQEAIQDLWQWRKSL

Row | binding result | Binder
1 | binds | GRGRGRGRGRGRGRGRGRGRGRGRGRGRGRGRGRGRGRGR [GR20-FLAG peptide]
2 | binds | PRPRPRPRPRPRPRPRPRPRPRPRPRPRPRPRPRPRPRPR [PR20-FLAG peptide]
